Data set [1] deals with the molecule itself. As to the kind of experiment: cryo-EM structure.
The target in data set [2] is full-length Casp-8 F122G/L123G/C360A/D374A/D384A (UniProt Q14790 1-479, F122G | L123G | C360A | D374A | D384A). Put plainly: co-purification.
For data set [3], the target named is T1, His-tagged full-length FADD F25Y (UniProt Q13158 1-208, F25Y).
T1 sequence: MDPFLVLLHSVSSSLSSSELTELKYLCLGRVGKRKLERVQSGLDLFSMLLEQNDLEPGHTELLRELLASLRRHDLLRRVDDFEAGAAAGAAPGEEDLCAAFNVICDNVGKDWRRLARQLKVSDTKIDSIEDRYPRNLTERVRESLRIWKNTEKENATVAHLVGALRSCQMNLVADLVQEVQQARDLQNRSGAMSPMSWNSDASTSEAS
As to the kind of experiment: pull-down.

Data set [4] has as its target wild-type cFLIP^tDED (residues 1-181) (UniProt O15519 1-181). As to the kind of experiment: crystal structure.

B1: His-tagged full-length FADD F25G (natural protein)
chain: MDPFLVLLHSVSSSLSSSELTELKGLCLGRVGKRKLERVQSGLDLFSMLLEQNDLEPGHTELLRELLASLRRHDLLRRVDDFEAGAAAGAAPGEEDLCAAFNVICDNVGKDWRRLARQLKVSDTKIDSIEDRYPRNLTERVRESLRIWKNTEKENATVAHLVGALRSCQMNLVADLVQEVQQARDLQNRSGAMSPMSWNSDASTSEAS
Usually stoichiometry N stands for a count of units in the complex or per binding partner. Take B1: the “stoichiometry N” value in data set [1] came to 3 molecules in the complex. The binding result in data set [2] was “binds”.

B2: binary CF^H7G-C8^FGLG complex, His-tag removed, SEC-purified (complex)
chain 1: […]
chain 2: MDFSRNLYDIGEQLDSEDLASLKFLSLDYIPQRKQEPIKDALMLFQRLQEKRMLEESNLSFLKELLFRINRLDLLITYLNTRKEEMERELQTPGRAQISAYRVMLYQISEEVSRSELRSFKGGLQEEISKCKLDDDMNLLDIFIEMEKRVILGEGKLDILKRVCAQINKSLLKIINDYEEFSKER
As to B2, the binding result in data set [3] is listed as “binds”.

B3: Casp-8^tDED_FGLG (procaspase-8 tandem DED, residues 1-185, F122G/L123G) (domain or fragment)
chain: MDFSRNLYDIGEQLDSEDLASLKFLSLDYIPQRKQEPIKDALMLFQRLQEKRMLEESNLSFLKELLFRINRLDLLITYLNTRKEEMERELQTPGRAQISAYRVMLYQISEEVSRSELRSFKGGLQEEISKCKLDDDMNLLDIFIEMEKRVILGEGKLDILKRVCAQINKSLLKIINDYEEFSKER
Turning to B3, in data set [4], the binding result was “binds”.

Source of the values: PMC11487272 (Nature Communications, 2024).
